These results are taken from patent US20210054077A1 (AMUNIX PHARMACEUTICALS, published 2021).

For test [1], the target named is Biotinylated CD3CEµ antigen (Creative Biomart). Description: BLI (ForteBio BLItz); biotinylated CD3 antigen on streptavidin biosensor, scFv dilution series in solution. For orientation: In BLI a coated tip is dipped into the sample, and binding shifts an interference pattern.
The target of test [2] is human HER2 on cells (HER2 positive human carcinoma cells; CT26-huHER2 transfected cells; human cardiomyocytes) (human) (UniProt P04626). Kind of test: cell-based or functional assay.
Test [3] deals with human HER2 on cells (HER2 positive human carcinoma cells; CT26-huHER2 transfected cells; human cardiomyocytes) (human, UniProt P04626 23-1255). Description: cell-based or functional assay.
The next test concerns the target T1, Cyno CD3 ϵ -Fc (cynomolgus monkey, UniProt Q95LI5 22-117).
T1 construct: also called cynomolgus monkey CD3; not shown: Fc part, captured on anti-human Fc biosensors
T1 sequence (looked up): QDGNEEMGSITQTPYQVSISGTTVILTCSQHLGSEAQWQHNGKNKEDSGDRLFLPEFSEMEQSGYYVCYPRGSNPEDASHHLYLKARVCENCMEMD
Description: BLI (ForteBio Octet Red); target-Fc loaded on anti-human Fc biosensor, AC2275 as analyte 1010 nM to 16 nM.

In another test the target is T2, Human CD3 ϵ -Fc (human, UniProt P07766 23-126).
T2 construct: not shown: Fc part, captured on anti-human Fc biosensors
T2 sequence (P07766 23-126): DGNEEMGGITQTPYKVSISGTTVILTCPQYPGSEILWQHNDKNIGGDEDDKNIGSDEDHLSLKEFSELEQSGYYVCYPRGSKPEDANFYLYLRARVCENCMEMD
Described as above.

Where a chain is given by its changes, count along the chain named.

Biotinylated CD3CEµ antigen (Creative Biomart), sequence (P07766 23-126): as above

B1: CD3.9 scFv (scFv)
scFv: ELVVTQEPSLTVSPGGTVTLTCRSSTGAVTTSNYANWVQQKPGQAPRGLIGGTNKRAPGTPARFSGSLLGGKAALTLSGVQPEDEAEYYCALWYSNLWVFGGGTKLTVLGATPPETGAETESPGETTGGSAESEPPGEGEVQLLESGGGLVQPGGSLKLSCAASGFTFNTYAMNWVRQAPGKGLEWVARIRSKYNNYATYYADSVKDRFTISRDDSKNTAYLQMNNLKTEDTAVYYCVRHGNFGNSYVSWFAYWGQGTLVTVSS
By Kd is commonly meant the constant that tells how readily two partners part at equilibrium. As for B1, the Kd in test [1] worked out at 75 nM.

B2: CD3.26 scFv (scFv)
scFv: B1 scFv with L10H, A28E, N54I, S95P, L150I, A220V, G241E, Y253H
B2 showed a Kd in test [1] of 221 nM. Against the preceding molecule, the Kd is about 2.9-fold higher.

B3: CD3.23 scFv (scFv)
scFv: B1 scFv with T26N, T31S, E87V, S95P, L150I, A220V, G241E, Y253H
As to B3, in test [1], the Kd amounted to 175 nM. This Kd and that of the molecule before are within 1.5-fold of each other.

B4: CD3.24 scFv (scFv)
scFv: B1 scFv with T26N, A28E, N54I, E87V, S95P, L150I, A220V, G241E, Y253H
On to B4, for which the Kd in test [1] was 296 nM.

B5: CD3.25 scFv (scFv)
scFv: B1 scFv with L10H, T31S, N54I, S95P, L150I, A220V, G241E, Y253H
In test [1], B5 had a Kd of 215 nM.

B6: pJB0244, masked anti-HER2 x anti-CD3 bispecific antigen binding polypeptide with two XTEN and two RSR2295 release segments (bispecific antibody, part only; not given: AE868 XTEN, scFv linker, not shown: small tags and cut ends)
chain, part: HHHHHHSPAGSPTSTEEGTSESATPESGPGTSTEPSEGSAPGTSESATPESGPGSEPATSGSETPGTSESATPESGPGSEPATSGSETPGTSESATPESGPGTSTEPSEGSAPGSPAGSPTSTEEGTSESATPESGPGSEPATSGSETPGTSESATPESGPGSPAGSPTSTEEGSPAGSPTSTEEGTSTEPSEGSAPGTSESATPESGPGTSESATPESGPGTSESATPESGPGSEPATSGSETPGSEPATSGSETPGSPAGSPTSTEEGTSTEPSEGSAPGTSTEPSEGSAPGGSAPEAGRSANHTPAGLTGPDIQMTQSPSSLSASVGDRVTITCKASQDVSIGVAWYQQKPGKAPKLLIYSASYRYTGVPSRFSGSGSGTDFTLTISSLQPEDFATYYCQQYYIYPYTFGQGTKVEIKGATPPETGAETESPGETTGGSAESEPPGEGEVQLVESGGGLVQPGGSLRLSCAASGFTFTDYTMDWVRQAPGKGLEWVADVNPNSGGSIYNQRFKGRFTLSVDRSKNTLYLQMNSLRAEDTAVYYCARNLGPSFYFDYWGQGTLVTVSSELVVTQEPSLTVSPGGTVTLTCRSSNGAVTSSNYANWVQQKPGQAPRGLIGGTNKRAPGTPARFSGSLLGGKAALTLSGVQPEDEAVYYCALWYPNLWVFGGGTKLTVLGATPPETGAETESPGETTGGSAESEPPGEGEVQLLESGGGIVQPGGSLKLSCAASGFTFNTYAMNWVRQAPGKGLEWVARIRSKYNNYATYYADSVKDRFTISRDDSKNTVYLQMNNLKTEDTAVYYCVRHENFGNSYVSWFAHWGQGTLVTVSSEAGRSANHTPAGLTGP
For the molecule B6, in test [2], the EC50 (pM), cytotoxicity (Caspase-Glo 3/7), BT-474 cells with human PBMC amounted to 66000 pM; the EC50 (pM), cytotoxicity (Caspase-Glo 3/7), SK-Br3 cells with human PBMC came out at 19500 pM; the EC50 (pM), cytotoxicity (Caspase-Glo 3/7), SKOV-3 cells with human PBMC was found to be 14100 pM.

B7: AC2275, bivalent anti-HER2, anti-CD3 XTENylated binder (HER2-XPAT of Example 24) (bispecific antibody)
chain: HHHHHHSPAGSPTSTEEGTSESATPESGPGTSTEPSEGSAPGTSESATPESGPGSEPATSGSETPGTSESATPESGPGSEPATSGSETPGTSESATPESGPGTSTEPSEGSAPGSPAGSPTSTEEGTSESATPESGPGSEPATSGSETPGTSESATPESGPGSPAGSPTSTEEGSPAGSPTSTEEGTSTEPSEGSAPGTSESATPESGPGTSESATPESGPGTSESATPESGPGSEPATSGSETPGSEPATSGSETPGSPAGSPTSTEEGTSTEPSEGSAPGTSTEPSEGSAPGGSAPEAGRSANHTPAGLTGPATSGSETPGTDIQMTQSPSSLSASVGDRVTITCKASQDVSIGVAWYQQKPGKAPKLLIYSASYRYTGVPSRFSGSGSGTDFTLTISSLQPEDFATYYCQQYYIYPYTFGQGTKVEIKGATPPETGAETESPGETTGGSAESEPPGEGEVQLVESGGGLVQPGGSLRLSCAASGFTFTDYTMDWVRQAPGKGLEWVADVNPNSGGSIYNQRFKGRFTLSVDRSKNTLYLQMNSLRAEDTAVYYCARNLGPSFYFDYWGQGTLVTVSSGGGGSELVVTQEPSLTVSPGGTVTLTCRSSNGAVTSSNYANWVQQKPGQAPRGLIGGTNKRAPGTPARFSGSLLGGKAALTLSGVQPEDEAVYYCALWYPNLWVFGGGTKLTVLGATPPETGAETESPGETTGGSAESEPPGEGEVQLLESGGGIVQPGGSLKLSCAASGFTFNTYAMNWVRQAPGKGLEWVARIRSKYNNYATYYADSVKDRFTISRDDSKNTVYLQMNNLKTEDTAVYYCVRHENFGNSYVSWFAHWGQGTLVTVSSGTAEAASASGEAGRSANHTPAGLTGPPGSPAGSPTSTEEGTSESATPESGPGTSTEPSEGSAPGSPAGSPTSTEEGTSTEPSEGSAPGTSTEPSEGSAPGTSESATPESGPGSEPATSGSETPGSEPATSGSETPGSPAGSPTSTEEGTSESATPESGPGTSTEPSEGSAPGTSTEPSEGSAPGSPAGSPTSTEEGTSTEPSEGSAPGTSTEPSEGSAPGTSESATPESGPGTSTEPSEGSAPGTSESATPESGPGSEPATSGSETPGTSTEPSEGSAPGTSTEPSEGSAPGTSESATPESGPGTSESATPESGPGSPAGSPTSTEEGTSESATPESGPGSEPATSGSETPGTSESATPESGPGTSTEPSEGSAPGTSTEPSEGSAPGTSTEPSEGSAPGTSTEPSEGSAPGTSTEPSEGSAPGTSTEPSEGSAPGSPAGSPTSTEEGTSTEPSEGSAPGTSESATPESGPGSEPATSGSETPGTSESATPESGPGSEPATSGSETPGTSESATPESGPGTSTEPSEGSAPGTSESATPESGPGSPAGSPTSTEEGSPAGSPTSTEEGSPAGSPTSTEEGTSESATPESGPGTSTEPSEGSAPGAAEPEA
notes: also called HER2-XPAT 2275
For B7, in test [3], the “EC50, % CD69+ T cells in human PBMC co-cultured with SK-OV-3 cells (flow cytometry)” value came to 3.63 nM; the “IC50, T-cell directed cytotoxicity (CellTiter-Glo ATP assay), BT474 cells with human PBMC” value came to 1.36 nM; the “IC50, T-cell directed cytotoxicity (CellTiter-Glo ATP assay), MCF7 cells with human PBMC” value is above 26.7 nM; the “IC50, T-cell directed cytotoxicity (CellTiter-Glo ATP assay), SKOV3 cells with human PBMC” value is 15.3 nM. The molecule also returned a Kd with Cyno CD3 ϵ -Fc of 170 nM. Moreover, the Kd with Human CD3 ϵ -Fc came out at 111 nM.
